Assay: yeast display, Sf9 membrane polyspecificity reagent, FACS + sequencing; frameworks hold sequencing errors
Summary of the method: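 Polyreactivity labels are assigned by the sorting gate from which each nanobody was recovered. The gates were low and high (top ~1%), set on anti-HA fluorescence for expression and streptavidin fluorescence for reagent binding. Before sorting, galactose-induced (36–48 hours) yeast display cells were stained for 1 hour at 4 °C with 10% biotinylated, detergent-solubilized Sf9 membrane reagent.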

| Sequence | polyreactivity (PSR sort gate) |
| --- | --- |
| QVQLVESGGGLVQAGGSLRLRCAASGFTFRFYAMGWYRQAPGKERELVAAISSTGIRTYYADSVKGRFTISRDNAKNTVYLQMNSLKPEDTAFYYCAILHRDSILDYWGQGTQVTVAS | high polyreactivity |
| QVQLVESGGGLVQAGGSLRLSCAASGSIFPLNDMGWYRQAPGKERELVAAITIGGSTYYADSVKGRFTISRDNAKNTVYLQMNSLKPEDTAVYYCAKVGELSYRYDYWGQGTQVTVSS | high polyreactivity |
| QVQLVESGGGLVQAGGSLRLSCAASGSIFLWYDMGWYRQAPGKERECVASITRSGGSTYYADSVKGRFTISRDNAKNTVYLQMNSLKPEDTAVYYCAASGATGRYSVYYHGYTYDYWGQGTQVTVSS | low polyreactivity |
| QVQLVESGGGLVQAGGSLRLSCAASGSTFLTNVMGWYRPAPGQERELVAAITIGGSTNYADSVKGRFTISRDNAKNTVYLQMNILKPEDTAVYYCATDIRRKPRYVDYEYWGQGTQVTVSS | low polyreactivity |
| QVQLVESGGGLVQAGGSLRLSCAASGSTSPGYAMGWYRQAPGKERELVAAITWNGGSTYYADSVKGRFTISRDNAKNTVYLQMNSLKPEDTAVYYCNKLSGYGWRSYGYWGQGTQVTVSS | high polyreactivity |
| QVQLVESGGGLVQAGGSLRLSCAASGYTFDKYAMGWYRPAPGKERELVAAITDGGSTNYADSVKGRFTISRDNAKNTVYLQMNSLKPEDTAVYYCNDELQWEVYYDRYPEYDHWGQGTQVTVSS | low polyreactivity |
| QVQLVESGGGLVQAGGSLRLSCAASGITFVWNAMGWYIKEPGKERELVATISRGGVRTYYADSVKGRFTISRDNAKNTVYLQMNSLKPEDTAVYYCNAYFEYYDYWGQGTQVSVSS | low polyreactivity |
| QVQLVESGGGLVQAGGSLRLSCAASGFTFYKNAMGWYRQAPGKERELVASISSGGSTKYADSVKGRFTISRDNAKNTVYLQMNSLKPEDTAVYYCAADSGRNRMYYWGQGTQVTVSS | high polyreactivity |
| QVQLVESGGGLVQAGGSLRLSCAASGSIFSFNVMGWYRQAPGKERELVATITGGGSTNYADSVKGRFTISRDNAKNTVYLQMNSLIPEDTAVYYCAARPVNGGILEYWGQGTQVTVSS | low polyreactivity |
| QVQLVESGGGLVQAGGSLRLSCAASGRTFGRNAMGWYRQAPGKEREFVAAISRRGDTTYYADSVKGRFTISRDNAKNTVYLQMNSLKPEDTAVYYCNADVIKDRFSWYYYWGQGTQVTVSS | low polyreactivity |
| QVQLVESGGGLVQAGGSLRLSCAASGSTFDSYAMGWYRPAPGKERELVAAITDSGSSTYYADSVKGRFTISRDNAKNTVYLQMNSLKPEDTAVYYCATYDYHGWSYYRYDYWGQGTQVTVSS | low polyreactivity |
| QVQLVESGGGLVQAGGSLRLSCAASGSISVDNTMGWYRQAPGKERELVAAISRSGGTTYYADSVKGRFTISRDNAKNTVYLQMNSLKPEDTAVYYCAKDTLRYRWRSYDYYPEMNYWGQGTQVTVSS | low polyreactivity |
| QVQLVESGGGLVQAGGSLRLSCAASGSTFYNNAMGWYRQAPGKERELVAAITRTGGRTYYADSVKGRFTISRDNAKNTVYLQMNSLKPEDTAVYYCAALRYGQGSISAFDYWGQGTQVTVSS | high polyreactivity |
| QVQLVESGGGLVQAGGSLRLSCAATGSTFDRYGMGWYRQAPGKERELVAAINSGDITNYADSVKGRFTISRDNAKNTVYLQMNSLKPEDTAVYYCNAGIRYFVVGRSSYDYWGQGTQVTVSS | low polyreactivity |
| QVQLVESGGGLVQAGGSLRLSCAASGSTFYYYAMGWYRQAPGKERELFATINKNVGITYYADSVKGRFTISRDNAKNTVYLQRNSMKTEVTAVDYCAAHGRINPDGPRTVFFASEEDYWGQGTQVTVSS | low polyreactivity |
| QVQLVESGGGLVQAGGSLRLSCAASGSTFTYNAMGWYRPAPGKERELVAAISYGGGRTYYADSVKGRFTISRDNAKNTVYLQMNSLKPEDTAVYYCAAGRSIGALYYGMDYWGQGTQVTVSS | high polyreactivity |
| QVQLQESGGGLVQAGGSLRLTCAASGTISDSGLMGWYRQAAGKERELVAGISSGGITNYADSVKGRFTISRDNAKNTVYLQMNSLIPEDTAVYWGQGTQVTVSS | low polyreactivity |
| QVQLVESGGGLVQAGGSLRLSCAASGRTFAVYAMGWYRQAPGKERELVAAITFGGGRTYYADSVKGRFTISRDNAKITVYLQMNSLKPEDTAVYYCAADYYGTDYDYRGQGTQVTVSS | low polyreactivity |
| QVQLVESGGGLVQAGGSLRLSCDASGRIFVVYAMGWSRQAPGKERELVAAITGGGRTNYADSVKGRFTISRDNAKNTVYLQMNSLKPEDTAVYYCAAGTRSDARRYYYWGQGTQVTVSS | low polyreactivity |
| QVQLVESGGGLVQAGGSLRLSCAASGRIFYSYTMGWYRQAPGKERELVAGINRSVGSTYYADSVKGRFTISRDNAKNTVYLQMNSLKPEDTAVYYCAAGSRRRSYYTFSSVHGHYYWGQVTQVTVSS | high polyreactivity |
| QVQLVESGGGLVQAGGSLRLICAASGSIFCTYAMGWYRQAPGKERELVAAITTSVGRTYYADSVKGRFTISRDNAKNTVYLHMNSLKPDDTAVYYCYAVRGGRYGLDYWGQGTHVTVSS | high polyreactivity |
| QVQLVESGGGLVQAGGSLRLSCAASGRTFDYNTMGWYRPAPGKDRELVAAISASGGSTYYADSVKGRFTISRDNAKNTVYLQMNSLKPEDTAVYYCNTYAGVEYYHWGQGTQVTVSS | low polyreactivity |

Source: the nanobody polyreactivity screen of Harvey et al. (2022)
